Experimental findings from article PMC2837607, “Orthophosphate binding at the dimer interface of Corynebacterium callunae starch phosphorylase: mutational analysis of its role for activity and stability of the enzyme” (BMC Biochemistry, 2010) are described below.

The target in assay [1] is Corynebacterium callunae starch phosphorylase R141A (Corynebacterium callunae).
Assay [2] shares this target. Briefly: SEC; R141A as isolated, prior to imidazole, 0.4 mg/ml; HiLoad 16/60 Superdex 200 prep grade, 50 mM potassium phosphate buffer pH 7.0, 0.15 M NaCl, 1 ml/min; calibrated with Bio-Rad Gel Filtration Standard. On the technique in general: SEC sorts molecules by how far they enter the pores of the column.
Assay [3] addresses Corynebacterium callunae starch phosphorylase K31A (Corynebacterium callunae).
Assay [4] concerns the target Corynebacterium callunae starch phosphorylase S174A (Corynebacterium callunae).
Assay [5] shares this target. The source holds these as a separate data set.
Assay [6] has as its target T1, Corynebacterium callunae starch phosphorylase (CcGlgP) (Corynebacterium callunae, UniProt Q8KQ56). Briefly: initial rate of glucan synthesis, Pi release. The format is biochemical. Also noted: full-length, N-terminal RGSHHHHHHGSA tag kept, from pQE 30-GlgP in E. coli JM109; homodimer (small tetramer fraction caused by tag); PLP enzyme. The settings on record: 50 mM G1P, 20 g/l starch, pH 7.0, 30 °C; apparent activation through dimer stabilisation, not allosteric.

Assay [7] has as its target T1, Corynebacterium callunae starch phosphorylase (CcGlgP). The settings on record: 50 mM triethanolamine, pH 7.0; dimer-interface P- and CAP-sites, not the catalytic site; stabilisation against subunit dissociation.
Assay [8] has as its target Corynebacterium callunae starch phosphorylase T28A (Corynebacterium callunae).
Assay [9] concerns the target Corynebacterium callunae starch phosphorylase, wild-type (Corynebacterium callunae).
For assay [10] the target is unchanged. The source holds these as a separate data set.
Assay [11] shares this target. This is another data set of the same source.
Assay [12] deals with T2, Corynebacterium callunae starch phosphorylase (CcGlgP) (Corynebacterium callunae, UniProt Q8KQ56, R142A).
T2 construct: full-length, N-terminal RGSHHHHHHGSA tag kept, from pQE 30-GlgP in E. coli JM109; homodimer (small tetramer fraction caused by tag); PLP enzyme
T2 sequence (Q8KQ56 entry or part of it R142A): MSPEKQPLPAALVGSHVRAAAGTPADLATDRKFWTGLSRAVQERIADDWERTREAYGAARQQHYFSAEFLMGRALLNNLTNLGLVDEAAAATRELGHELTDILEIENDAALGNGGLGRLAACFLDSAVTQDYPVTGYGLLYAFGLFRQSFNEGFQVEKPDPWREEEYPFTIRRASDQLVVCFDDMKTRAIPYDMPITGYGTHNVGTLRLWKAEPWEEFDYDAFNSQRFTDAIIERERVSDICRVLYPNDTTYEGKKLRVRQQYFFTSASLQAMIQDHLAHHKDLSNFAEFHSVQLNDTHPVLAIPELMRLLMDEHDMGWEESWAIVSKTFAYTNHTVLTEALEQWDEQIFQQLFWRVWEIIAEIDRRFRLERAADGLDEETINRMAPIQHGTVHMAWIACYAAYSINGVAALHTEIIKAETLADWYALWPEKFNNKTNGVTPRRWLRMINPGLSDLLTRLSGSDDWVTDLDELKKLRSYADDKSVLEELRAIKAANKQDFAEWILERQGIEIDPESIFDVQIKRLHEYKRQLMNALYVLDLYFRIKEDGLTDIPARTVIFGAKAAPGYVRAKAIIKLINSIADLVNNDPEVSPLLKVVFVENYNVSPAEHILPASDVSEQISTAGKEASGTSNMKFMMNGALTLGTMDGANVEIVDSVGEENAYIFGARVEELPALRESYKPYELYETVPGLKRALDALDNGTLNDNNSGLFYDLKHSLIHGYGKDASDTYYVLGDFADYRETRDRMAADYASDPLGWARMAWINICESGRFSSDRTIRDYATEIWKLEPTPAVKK
Nature of the assay: colorimetric PLP quantitation of the isolated enzyme. It counts as binding. The settings on record: covalent (Schiff base with active-site Lys); as isolated. An excerpt: (§1) colorimetric PLP quantitation of the isolated enzyme on Corynebacterium callunae starch phosphorylase (CcGlgP)

Assay [13] addresses T3, Corynebacterium callunae starch phosphorylase (CcGlgP) (Corynebacterium callunae, UniProt Q8KQ56, T29A).
T3 construct: full-length, N-terminal RGSHHHHHHGSA tag kept, from pQE 30-GlgP in E. coli JM109; homodimer (small tetramer fraction caused by tag); PLP enzyme
The description is as above. The format is binding. The settings on record: covalent (Schiff base with active-site Lys); as isolated.
From the text: as §1

For assay [14], the target named is T4, Corynebacterium callunae starch phosphorylase (CcGlgP) (Corynebacterium callunae, UniProt Q8KQ56, S175A).
T4 construct: full-length, N-terminal RGSHHHHHHGSA tag kept, from pQE 30-GlgP in E. coli JM109; homodimer (small tetramer fraction caused by tag); PLP enzyme
T4 sequence (Q8KQ56 entry or part of it S175A): as the sequence (Q8KQ56 entry or part of it R142A) above, with A142R, S175A counted along it
The description is as above. It counts as binding. The settings on record: covalent (Schiff base with active-site Lys); as isolated.
From the text: as §1

Assay [15] has as its target T5, Corynebacterium callunae starch phosphorylase (CcGlgP) (Corynebacterium callunae, UniProt Q8KQ56, K32A).
T5 construct: full-length, N-terminal RGSHHHHHHGSA tag kept, from pQE 30-GlgP in E. coli JM109; homodimer (small tetramer fraction caused by tag); PLP enzyme
The assay is described as above. It counts as binding. The settings on record: covalent (Schiff base with active-site Lys); as isolated.
From the text: as §1

In assay [16] the target is T1, Corynebacterium callunae starch phosphorylase (CcGlgP). The description is as above. The format is binding. Details: full-length, N-terminal RGSHHHHHHGSA tag kept, from pQE 30-GlgP in E. coli JM109; homodimer (small tetramer fraction caused by tag); PLP enzyme. The settings on record: covalent (Schiff base with active-site Lys); as isolated.
From the text: as §1

Values joined by “and” are separate entries in the source; they are usually repeats but may differ in a detail not shown here. Equal values may be shown once.

T1 sequence (Q8KQ56 entry or part of it): as the sequence (Q8KQ56 entry or part of it R142A) above, with A142R counted along it
T5 sequence (Q8KQ56 entry or part of it K32A): as the sequence (Q8KQ56 entry or part of it R142A) above, with K32A, A142R counted along it
T3 sequence (Q8KQ56 entry or part of it T29A): as the sequence (Q8KQ56 entry or part of it R142A) above, with T29A, A142R counted along it

By stoichiometry N is commonly meant the number of molecules, sites or subunits per partner or assembly. Take “Corynebacterium callunae starch phosphorylase R141A (enzyme)”: in assay [1], the half-life time (t1/2) of enzyme activity at 45°C, pH 7.0; no Pi, 10.0 mM Pi, 100 mM Pi (2.9, 7.5, 1.4 × 10^3 min) was 1400 min and the half-life time (t1/2) of enzyme activity in 0.4 M imidazole at 30°C; no Pi, 5.0 mM Pi (6.4, 27 min) came out at 27 min. Also, the stoichiometry N in [2] is 2 and 4.

As to “Corynebacterium callunae starch phosphorylase K31A (enzyme)”, in assay [3], the half-life time (t1/2) of enzyme activity at 45°C, pH 7.0; no Pi, 10.0 mM Pi, 100 mM Pi (5.3, 1.7 × 10^2, 3.5 × 10^3 min) amounted to 3500 min and the half-life time (t1/2) of enzyme activity in 0.4 M imidazole at 30°C; no Pi, 5.0 mM Pi (10, 25 min) amounted to 25 min.

In assay [4], “Corynebacterium callunae starch phosphorylase S174A (enzyme)” showed a half-life time (t1/2) of enzyme activity at 45°C, pH 7.0; no Pi, 10.0 mM Pi, 100 mM Pi (2.8, 33, 9.9 × 10^2 min) of 990 min and a half-life time (t1/2) of enzyme activity in 0.4 M imidazole at 30°C; no Pi, 5.0 mM Pi (14, 58 min) of 58 min. In addition, the enhancement of Vs by 10 mM sulphate, 50 mM G1P; protein 2.5 nM (~5-fold) and 50 nM (1.7-fold) in assay [5] was 5 fold.

On to `O=S(=O)(O)O` [sulphate], for which the “maximum stimulation of Vs at around 10 mM sulphate” value in assay [6] was ~ 3 fold.

As for `O=P(O)(O)O` [orthophosphate], the “inactivation at 45°C / 10.0 mM Pi” value in assay [7] was found to be 280 min.

In assay [8], “Corynebacterium callunae starch phosphorylase T28A (enzyme)” displayed a half-life time (t1/2) of enzyme activity at 45°C, pH 7.0; no Pi, 10.0 mM Pi, 100 mM Pi (0.8, 2.2, 3.3 × 10^2 min) of 330 min and a half-life time (t1/2) of enzyme activity in 0.4 M imidazole at 30°C; no Pi, 5.0 mM Pi (1.9, 5.6 min) of 5.6 min.

In [9], “Corynebacterium callunae starch phosphorylase, wild-type (enzyme)” displayed a half-life time (t1/2) of enzyme activity at 45°C, pH 7.0; no Pi, 10.0 mM Pi, 100 mM Pi (2.6, 2.8 × 10^2, 3.5 × 10^3 min) of 3500 min and a half-life time (t1/2) of enzyme activity in 0.4 M imidazole at 30°C; no Pi, 5.0 mM Pi (22, 160 min) of 160 min. Further, the apparent activation of Vs by 10 mM sulphate at 2.5 nM protein, 50 mM G1P in [10] amounted to 2.4 fold. Besides, the stimulation of the initial rate of glucan synthesis (Vs) by sulphate (5.0 - 40 mM (NH4)2SO4), 50 mM G1P, relative to the control lacking sulphate; maximum at around 10 mM sulphate in assay [11] amounted to 3 fold.

With `Cc1ncc(COP(=O)(O)O)c(C=O)c1O` [pyridoxal 5'-phosphate], the “PLP / [μM/μM protein]” value in assay [12] came to 0.7 μM/μM protein; in assay [13], 0.6 μM/μM protein; in assay [14] it was 0.7 μM/μM protein; in assay [15], 0.6 μM/μM protein; in assay [16], 0.7 μM/μM protein.
